# Measurements: the supplement of paper PMC11908140
# B1: library; numbered along this chain (parent)
# chain: MRKPRAAVGSGHRKQAASQEGRQKHAKNNSQAKPSACDGLARQPEEVVLQASVSSYHLFRDVAEVTAFRGSLLSWYDQEKRDLPWRRRAEDEMDLDRRAYAVWVSEVMLQQTQVATVINYYTGWMQKWPTLQDLASASLEEVNQLWAGLGYYSRGRRLQEGARKVVEELGGHMPRTAETLQQLLPGVGRYTAGAIASIAFGQATGVVDGNVARVLCRVRAIGADPSSTLVSQQLWGLAQQLVDPARPGDFNQAAMELGATVCTPQRPLCSQCPVESLCRARQRVEQEQLLASGSLSGSPDVEECAPNTGQCHLCLPPSEPWDQTLGVVNFPRKASRKPPREESSATCVLEQPGALGAQILLVQRPNSGLLAGLWEFPSVTWEPSEQLQRKALLQELQRWAGPLPATHLRHLGEVVHTFSHIKLTYQVYGLALEGQTPVTTVPPGARWLTQEEFHTAAVSTAMKKVFRVYQGQQPGTCMGSKRSQVSSPCSRKKPRMGQQVLDNFFRSHISTDAHSLNSAAQ
# Variants of: B1
# Assay: 8OG:A repair function score (normalized; synonymous = 0, nonsense = -1) (normalized log-likelihood score); higher = more repair activity (WT-like)
# Conditions: with 8OG:A DNA repair reporter (GFP) in HEK-293 MUTYH KO cells
# Method in brief: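 After 72 h, viable mCherry+ cells were split into GFP+ (repair) and GFP− bins in three replicates per tile. These cells were MUTYH knockout HEK-293 cells holding lentiviral MUTYH cDNA NNN codon-scan libraries, kept in 10 pg/ml doxycycline and co-transfected with mCherry plus an 8OG:A GFP repair reporter. Sequencing of tile amplicons gave per-tile Rosace fitness scores, normalized into a repair function score anchored on synonymous and nonsense distributions. Synonymous medians were fixed at 0, nonsense at -1, and variants under 300 counts per million at the start were removed.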
# 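Also: cells sorted at 72 h after reporter transfection.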
row,Variant,8OG:A repair function score
1,E141K,-0.0452
2,W381M,0.148
3,W381E,0.244
4,L149F,-0.43
5,L149N,-0.783
6,R491T,0.0121
7,R491P,-0.0953
8,Y190V,-0.566
9,A280F,-0.597
10,H420R,-0.393
11,P44N,-0.0778
12,E90Q,-0.0474
13,E90I,-0.0086
14,E302I,-0.284
15,T228R,0.329
16,T228N,-0.0359
17,T228E,0.0521
18,T228G,0.0678
19,Y100P,-2.33
20,V166I,0.0212
21,V166W,0.0741

row,Variant,8OG:A repair function score
1,D77G,-0.0368
2,M93P,-0.0336
3,A254D,-0.87
4,P474Q,0.0183
5,K390S,0.0865
6,S74L,-0.0187
7,Q394W,-0.387
8,S298A,-0.000852
9,S298H,0.0283
10,S298M,-0.0331
11,A115P,-0.0424
12,H454R,-0.00791
13,H454W,0.536
14,H454P,-0.139
15,G497N,0.0269
16,Q144I,0.051
17,L241W,-0.384
18,I221T,-0.889
19,P383C,-0.0431
20,P383V,-0.163
21,S490I,-0.0509

row,Variant,8OG:A repair function score
1,R332F,-0.0556
2,C216S,-0.137
3,C216G,-0.663
4,F504Q,-0.00826
5,A41P,0.00904
6,D133R,-0.0865
7,R2N,0.108
8,V500Y,-0.00833
9,W374I,-0.729
10,A212F,-0.426
11,R281S,-0.126
12,W447C,-1.09
13,G188S,-0.643
14,G188W,-1.02
15,R156V,-0.117
16,A357E,-0.0948
17,A357K,-0.152
18,K481T,-0.0524
19,V379Y,-0.744
20,V379T,-0.0632
21,V274H,-0.563

row,Variant,8OG:A repair function score
1,L408M,-0.0275
2,W85G,-2.15
3,S226V,-0.247
4,S367D,-0.0756
5,S367E,0.154
6,L158D,-1.18
7,L158M,-0.194
8,L58I,-0.00475
9,Q50D,0.088
10,Q435L,0.0233
11,Q132W,-0.228
12,M255V,-0.846
13,V415E,-0.106
14,H172T,0.0683
15,P129N,-0.266
16,G70A,-0.0222
17,P404D,-0.155
18,P404Q,0.15
19,A253H,-1.03
20,A253F,-1.03
